The target of experiment [1] is T1, human Kv1.3 (Homo sapiens, UniProt P22001).
T1 construct: cell lines stably expressing the full length human Kv1.3 channel
As to the kind of experiment: IonWorks Quattro automated perforated patch clamp, Kv1.3-expressing CHL cells. The format is cell-based. As to conditions: monovalent Nanobodies, sustained current P1. From the text:
Selected Nanobodies were electrophysiologically characterized on human Kv1.3 on the IonWorks automated perforated-Patch Clamp using Kv1.3-expressing Chinese Hamster Lung (CHL) cells. The procedure for evaluating the modulatory effect of the purified Nanobodies on human Kv1.3 via electrophysiological recordings is given below.
IonWorks Quattro (Molecular Devices) is a second-generation screening instrument that provides membrane voltage control and provides a direct electrophysiological assay for screening and characterization of compounds. It is an automated, high-throughput planar perforated patch clamp that uses a 384-well PatchPlate™ substrate.
Extracellular solution contained (in mM): 138 NaCl, 2.7 KCl, 0.9 CaCl2, 0.5 MgCl2, 8 Na2HPO4, and 1.5 KH2PO4 (pH 7.3 with NaOH, and 285-290 mOsmolar). The intracellular solution contained (in mM): 100 K-gluconate, 40 KCl, 3.2 EGTA, 5 HEPES and 3.2 MgCl2 (pH 7.3 with KOH, and 300-315 mOsmolar). These solutions were freshly made, stocked for no longer than a month at 4° C. and filtered prior to use. The selected Nanobodies were directly diluted in extracellular solution to obtain a 3 μM sample solution. […]
The basic principles of IonWorks automated patch clamp electrophysiology are described by Schroeder et al. (J Biomol Screen 8(1):50-64, 2003). […] In PPC mode, an ensemble average of the current from up to 64 cells per well was recorded. […]

For experiment [2], the target named is T1, human Kv1.3. As to the kind of experiment: IonFlux automated patch clamp, Kv1.3-expressing HEK293H cells. In kind it is cell-based. As to conditions: monovalent Nanobodies, concentration at which Kv1.3 current is 50%. The text has this: Periplasmic extracts were electrophysiologically screened for inhibitory effects on the voltage-gated potassium channel Kv1.3 on the IonFlux™ automated Patch Clamp using Kv1.3-expressing HEK293H cells. The complete procedure for evaluating the modulatory effect of periplasmic extracts on human Kv1.3 via electrophysiological recordings is given below.
The IonFlux™ (Molecular Devices) is an automated patch clamp system with integrated Well Plate Microfluidic™ Technology, temperature control and continuous perfusion and voltage clamp. The IonFlux™ 16 has sixteen parallel amplifiers and uses 96-well IonFlux plates conform to the Society for Biomolecular Sciences. This system allows both population and single cell patch clamp.
Extracellular solution contained (in mM): 132 NaCl, 5.4 KCl, 1.8 CaCl2, 0.8 MgCl2, 10 HEPES, 5 glucose (pH 7.2 with NaOH, and 285-290 mOsmolar). Intracellular solution contained (in mM): 40 KF, 100 KCl, 2 MgCl2, 10 HEPES, 5 EGTA (pH 7.45 with CsOH, and 300-315 mOsmolar). These solutions were freshly made, stocked for no longer than a month at 4° C. and filtered prior to use. […]
HEK293H cells stably expressing the human Kv1.3 channel were generated in house. […] Cells were counted (Casy T T, Roche), suspended at 1 million cells/ml, transferred to a new 50 ml conical CELLSTAR® tube and gently shaken at RT for approximately 20 min. […]
(In patch-clamp work, channel activity is measured electrically.)

Another experiment concerns CCR7−CD45RA− T cells. The format is cell-based, human. As to conditions: for IC50: monovalent Nanobodies. The text has this: The purified anti-Kv1.3 Nanobodies were characterized in a T Cell-activation assay. Human T Cells were first collected from Buffy Coat blood (from healthy volunteers, Bloodbank Gent) using RosetteSep (StemCell Technologies, #15061) followed by an enrichment on Ficoll-Paque™ PLUS (GE Healthcare #17-1440-03). CCR7−CD45RA− T cells were isolated through negative selection using biotinylated antibodies against CD45RA (BD Bioscience #624008) and CCR7 (BD Bioscence #624009) in addition to the Dynabeads Biotin Binder (Invitrogen #110.47). The purity of the population was afterwards checked with anti-CD3 (eBioscience #12-0037-73); anti-CD8 (BD Bioscience #345775); anti-CD4 (BD Bioscience #345771); anti-CD45RO (BD Bioscience #555493); anti-CD45RA (BD Bioscience #550855); anti-rat IgG (Jackson ImmunoResearch Laboratories #112-116-143); anti-CD19 (BD Bioscience #555413) and anti-Human CCR7 (R&D Systems #MAB197) labeled antibodies in flow cytometric assay.
Isolated CCR7^−CD45RA^− T Cells were then stimulated on anti-CD3 (eBioscience 16-0037-85; 540 ng/ml) coated 96-well plates at a concentration of 200 000 cells/well in absence or presence of dilution series of anti-Kv1.3 antibodies and ShK positive control (Smartox, #08SHK001). After 72 h, IFN-gamma production was measured with anti-human IFNγ antibody capture in ELISA (BD Bioscence #551221) combined with biotinylated anti-human IFNγ (BD Bioscience, #554550) and streptavidin-HRP (Dakocytomation #P0397) as detection (FIG. 11A-11B).
In addition, also CD25 expression was measured in flow cytometry, using an anti-CD25 antibody (BD Pharmingen, cat 557138) (FIG. 11C-11D). […]

Where two headings read alike, the source gives them in different places.

T1 sequence (P22001 whole entry): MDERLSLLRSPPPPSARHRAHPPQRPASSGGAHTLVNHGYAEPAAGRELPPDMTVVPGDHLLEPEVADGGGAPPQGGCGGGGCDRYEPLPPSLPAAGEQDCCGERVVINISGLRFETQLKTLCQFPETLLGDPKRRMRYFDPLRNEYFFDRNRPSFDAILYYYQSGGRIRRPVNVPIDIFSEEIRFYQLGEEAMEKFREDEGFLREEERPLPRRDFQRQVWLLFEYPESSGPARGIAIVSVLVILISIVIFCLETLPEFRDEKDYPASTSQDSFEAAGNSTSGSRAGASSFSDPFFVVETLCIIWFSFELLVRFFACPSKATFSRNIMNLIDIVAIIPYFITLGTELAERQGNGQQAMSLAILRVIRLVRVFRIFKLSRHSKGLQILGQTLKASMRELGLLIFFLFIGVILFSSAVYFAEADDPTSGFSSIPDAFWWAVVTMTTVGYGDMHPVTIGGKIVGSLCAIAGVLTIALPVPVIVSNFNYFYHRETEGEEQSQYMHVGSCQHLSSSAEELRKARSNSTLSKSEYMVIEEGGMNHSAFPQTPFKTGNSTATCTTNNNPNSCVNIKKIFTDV

B1: A0194016B04: monovalent anti-Kv1.3 Nanobody, family 12 (protein)
VHH: EVQLVESGGGLVQAGGSLRLSCSASGLLFSVNSAGWYRQAPGKQRDFVARIRSGGSTNYADSVKGRFTISRDKATNTLYLQMNNLKPEDTAVYYCSSWRTEAYEYWGRGTLVTVSS
modifications: Nanobody sequence
Take B1: the IC50 amounted to 34 nM in the experiment with human Kv1.3 [1] and 84 nM with human Kv1.3 [2].

B2: A0194020A06: monovalent anti-Kv1.3 Nanobody, family 12 (protein)
VHH: EVQLVESGGGLVQAGGSLGLSCSASGLLFSRNSAGWYRQAPGKRREFVARIRMGGSINYADSVKGRFTVSRDNAKNMMYLQMNDLKPEDTAVYFCSGWREGFYEYWGQGTLVTVSS
modifications: Nanobody sequence
With B2, in the experiment with CCR7−CD45RA− T cells (anti-CD3 stimulation), the “inhibition of T-cell stimulation (IFNγ, CD25), in words” value was “clearly inhibited”. The IC50 is 30 nM in the experiment on CCR7−CD45RA− T cells (plate bound anti-CD3, 72 h, read-out: IC50 (in M) IFNγ read out); 36 nM in the experiment with CCR7−CD45RA− T cells (plate bound anti-CD3, read-out: IC50 (in M) CD25 read out); 13.4 nM with human Kv1.3 [2].

As usually defined, the IC50 is the concentration at which inhibition is half-maximal.

For the origin of these results see US11149086B2, “KV1.3 binding immunoglobulins” (Ablynx N.V., priority 2014, dated 2021).
